Assay results: US20250011804A1 (PIONEER HI BRED INTERNATIONAL, published 2025)

B1: ZmZAG2 (other)
chain: MGRGRIEIKRIENNTSRQVTFCKRRNGLLKKAYELSVLCDAEVALIVFSSRGRLYEYANNSVKATIERYKKAHTVGSSSGPPLLEHNAQQFYQQESAKLRNQIQMLQNTNRHLVGDSVGNLSLKELKQLESRLEKGISKIRARKSELLAAEISYMAKRETELQNDHMTLRTKIEEGEQQLQQVTVARSVAAAAAAATNLELNPFLEMDTKCFFTGGPFATLDMKCFLPGSLQQMLEAQQRQMLATELNLGYQLAPPGSDAADNNPHHQF
notes: Tested as prey fusion (GAL4 AD in Y2H/HY1H, nGFP with 30x glutamine linker in BiFC); also called zag2 - Zea AGAMOUS homolog2; GRMZM2G160687
B2: ZmMADS24 (other)
chain: MGRGKVVLQRIENKISRQVTFAKRRNGLLKKAYELSILCDAEVALVLFSHAGRLYQFSSSSNLLKTLERYQRYIYASADAAVPSSDQMQNNYQEYVKLKARVEVLQHSQRNLLGEDLALLSPSELDQLENQVDKTLKQIRSRKTQVLLDELCDLKRKEQMLQDANRVLKRKLGEFEAEAASPPQLAWQGEGGMLSHDPPQPEHFFQALESNPCLQPTYHTMDMNQQPVPAPGGCYPAWMS
notes: Tested as prey fusions; also called zmm24 - Zea mays MADS24; GRMZM2G087095
B3: ZmSF2 (other)
chain: MTRRNGCTIYVGNLPGDIREREVDDLFYKGRQCGLRMYGRIVEIDLKIPPRPPGFAFVEFEDARDAEDAIYGRDGYNFDGHRLRVELAHGGRGTSSFDRSSSYSSAGQRGASKRSDYRVMVTGLPSSASWQDLKDHMRRAGDVCFTDVYREAGATIGIADYTNYEDMKHAIRKLDDSEFRNAFSRTYVRVREYDARRSRSRSRGRNRSKSRSRSHSHSYSRSRSCSYSKSRSPRSRSASESKSPVKARSPSRSPPVSPRRDKSASRSPARSKSLPRSCSPAKSE
notes: Tested as prey fusions; also called Zea mays splicing factor 2; GRMZM2G170365
B4: ZmMADS7-LIKE (other)
chain: MGRGRVELKRIENKINRQVTFAKRRNGLLKKAYELSVLCDAEVALIVFSNRGKLYEFCSGPSITRTLERYEKNSYAGPDTAVQNKENELVQNSRNEYLKLKAKVDNLQRTQRNLLGEDLGSLGVKELDQLEKQIDSSLSHIRSTRTQHMLDQLTDLQRREQMMCEANKCLRRKLEETSNQVHGQVWEHGANLLLGYERHSSPQQAPSHVGNGLFFHPLEAAAEPTLQIGFAPEHMNNFMPAWLP
notes: Tested as prey fusions; also called zmm7 - Zea mays MADS7; GRMZM2G097059
B5: ZmSFT-LIKE (other)
chain: MGSVLLPTLRLKSEVDAAIRDTLDKVLVLRFGRATDATCLHLDDILDKSSWDISKFAMVALVDMDSEEIQVYIDYFDITLVPATIFFFNAHHMKMDSGTPDHTKWIGSFSSKQDFIDVVEAIFRGAMKGKLIVSCPLPPERIPRFQLLFKDV
notes: Tested as prey fusions; also called ZmSFT-like - Zea mays mRNA splicing factor thioredoxin-like U5 snRNP; GRMZM2G086779
B6: ZmMADSL6 (other)
chain: MGRGRVELKRIENKINRQVTFAKRRNGLLKKAYELSVLCDAEVALIIFSNRGKLYEFSSTQSMPKTLEKYQKCSFAGPETALQNRENEQLKSSRNEYLKLKARVDNLQRTQRNLLGEDLESLGIKELEHLEKQLDSSLKHIRSTRTQHMVDQLTELQKKEQMFCEANKCLRRRLEESNQVIWQHAWEQSERHSEVQPQQLNGNNFFHPLDGAGEPTLQIGYPSEALTSSCMTTFLPPWLP
notes: positive control of the BiFC assay (full length); Tested as prey fusions; also called WT ZMMADSL6; full length ZmMADSL6
B7: Zmm28 transcription factor (other)
chain: MGRGPVQLRRIENKINRQVTFSKRRNGLLKKAHEISVLCDAEVALIVFSTKGKLYEYSSHSSMEGILERYQRYSFEERAVLNPSIEDQANWGDEYVRLKSKLDALQKSQRQLLGEQLSSLTIKELQQLEQQLDSSLKHIRSRKNQLMFDSISALQKKEKALTDQNGVLQKFMEAEKEKNKALMNAQLREQQNGASTSSPSLSPPIVPDSMPTLNIGPCQHRGAAESESEPSPAPAQANRGNLPPWMLRTVK
notes: MADS-box transcription factor; also called Zm00001d022088

Target: B7
Assay: BiFC, maize protoplasts, flow cytometry
Experimental: (§1) Potential interaction partners of ZMM28 were further tested in vivo with a bimolecular fluorescence complementation (BiFC) assay. Following transfection of maize protoplasts, fluorescence was measured indicating interaction between nGFP-Prey and cGFP-ZMM28 (Bait). As BiFC is prone to false-positive self-assembly independent of protein-protein interaction, flow cytometry was used to quantify the BiFC signal and reduce the occurrence of false positives. All signal comparisons were made to a negative control providing a baseline for self-assembly. The control was created by deleting 47 amino acids from the leucine zipper-like K-domain of ZMMADSL6, a protein interaction partner of ZMM28 identified from bioinformatics prediction and Y2H experiment. […] Of the 12 tested protein interactions, eight were confirmed via the BiFC assay with almost half the interactions confirmed positive in both BiFC and Y2H assays (Table 2a). Table 2: ZMM28 protein-protein interactions, transcription, direct targets.
(§2) Maize seedlings were germinated and grown in Fafard Super Fine Germination Mix for 6 days in a lighted growth chamber (30° C., 60% RH, 24 h light) and were transferred to a dark growth chamber (30° C., 60% RH, 0 h light) and grown for an additional 4 days to V1. Seedlings were sub-irrigated with deionized water. Maize protoplasts were isolated from these seedlings and were transiently transformed by PEG-mediated transfection as described by Yoo et al.63 with the addition of 0.6 M mannitol in the enzyme, WI, W5 and MMG solutions. Protoplasts were transfected with 10 pmol bait+10 pmol prey plasmid DNA per 3×10^4 cells. Protoplasts were incubated on a 12-well (1 mL WI) plate for 20 hours at RT before samples were analyzed.
(§3) BiFC signals were detected by flow cytometry performed using an Attune™ Flow Cytometer (Thermo Fisher Scientific, Waltham, MA, USA) with a Blue/Violet configuration (488 nm, 20 mW laser and a 405 nm, 50 mW laser).

| Binder | BiFC positive cell count |
| --- | --- |
| B1 | 125 cells out of 10,000 |
| B2 | 2100 cells out of 10,000 |
| B3 | 715 cells out of 10,000 |
| B4 | 438 cells out of 10,000 |
| B5 | 2330 cells out of 10,000 |
| B6 | 4060 cells out of 10,000 |

Target: the molecule itself
Assay: BiFC, maize protoplasts, flow cytometry
Experimental: as §1, §2, §3

| Binder | BiFC positive cell count |
| --- | --- |
| B7 | 1010 cells out of 10,000 |
